The record followed here is patent US20090233982.

Read-outs that look alike come from different tables or passages of the source.

Data set [1] concerns Dnmt1 (Mus musculus). To be noted: 14C-SAM incorporation; as efficient as Misu.
The target in data set [2] is Misu (full length, mouse) (Mus musculus) (UniProt Q1HFZ0). The note with it: 14C-SAM incorporation, 37 C 1 h.
The target is the same in data set [3]. The note with it: 14C-SAM incorporation, 37 C 1 h, DNase treated; about two fold without DNase.

Sequence of Misu (full length, mouse) (Mus musculus) (Q1HFZ0 whole entry): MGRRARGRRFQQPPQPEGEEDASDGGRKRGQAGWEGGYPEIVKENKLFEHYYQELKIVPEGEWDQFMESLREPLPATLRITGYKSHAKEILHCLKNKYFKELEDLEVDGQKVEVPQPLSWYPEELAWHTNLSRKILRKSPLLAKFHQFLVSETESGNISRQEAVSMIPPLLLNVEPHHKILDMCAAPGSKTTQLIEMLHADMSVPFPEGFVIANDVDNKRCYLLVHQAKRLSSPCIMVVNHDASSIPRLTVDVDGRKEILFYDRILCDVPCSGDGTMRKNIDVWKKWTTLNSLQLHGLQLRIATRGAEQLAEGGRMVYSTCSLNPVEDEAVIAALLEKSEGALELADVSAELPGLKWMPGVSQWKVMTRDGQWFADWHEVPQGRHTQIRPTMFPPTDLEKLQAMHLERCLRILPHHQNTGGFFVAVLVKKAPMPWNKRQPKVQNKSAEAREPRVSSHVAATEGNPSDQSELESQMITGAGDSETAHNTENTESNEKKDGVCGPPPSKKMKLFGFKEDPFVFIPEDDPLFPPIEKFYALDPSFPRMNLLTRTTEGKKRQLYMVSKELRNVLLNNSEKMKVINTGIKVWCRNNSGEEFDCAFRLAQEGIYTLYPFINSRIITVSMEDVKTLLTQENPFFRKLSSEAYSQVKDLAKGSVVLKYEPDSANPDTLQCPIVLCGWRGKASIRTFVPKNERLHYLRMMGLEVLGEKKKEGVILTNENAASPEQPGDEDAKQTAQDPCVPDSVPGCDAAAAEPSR

As for E. coli rRNA, the activity (fold over control) in data set [1] and in data set [2] was 2 throughout.

Turning to E. coli tRNA, the results for the activity (fold over control) in data set [1] and in data set [3] were 2 and 3, respectively.

“hemi-methylated double stranded oligonucleotide” gave an activity (fold over control) in data set [2] (5mC on one strand (hemi-methylated), retained after RNase) of 2.
